Article PMC3701943

Molecular target: W590S murine ABCA1-GFP fusion (murine) (UniProt P41233)
Test: flow cytometry on cells

UniProt P41233, sequence (P41233 whole entry W590S, the tested form may be a part): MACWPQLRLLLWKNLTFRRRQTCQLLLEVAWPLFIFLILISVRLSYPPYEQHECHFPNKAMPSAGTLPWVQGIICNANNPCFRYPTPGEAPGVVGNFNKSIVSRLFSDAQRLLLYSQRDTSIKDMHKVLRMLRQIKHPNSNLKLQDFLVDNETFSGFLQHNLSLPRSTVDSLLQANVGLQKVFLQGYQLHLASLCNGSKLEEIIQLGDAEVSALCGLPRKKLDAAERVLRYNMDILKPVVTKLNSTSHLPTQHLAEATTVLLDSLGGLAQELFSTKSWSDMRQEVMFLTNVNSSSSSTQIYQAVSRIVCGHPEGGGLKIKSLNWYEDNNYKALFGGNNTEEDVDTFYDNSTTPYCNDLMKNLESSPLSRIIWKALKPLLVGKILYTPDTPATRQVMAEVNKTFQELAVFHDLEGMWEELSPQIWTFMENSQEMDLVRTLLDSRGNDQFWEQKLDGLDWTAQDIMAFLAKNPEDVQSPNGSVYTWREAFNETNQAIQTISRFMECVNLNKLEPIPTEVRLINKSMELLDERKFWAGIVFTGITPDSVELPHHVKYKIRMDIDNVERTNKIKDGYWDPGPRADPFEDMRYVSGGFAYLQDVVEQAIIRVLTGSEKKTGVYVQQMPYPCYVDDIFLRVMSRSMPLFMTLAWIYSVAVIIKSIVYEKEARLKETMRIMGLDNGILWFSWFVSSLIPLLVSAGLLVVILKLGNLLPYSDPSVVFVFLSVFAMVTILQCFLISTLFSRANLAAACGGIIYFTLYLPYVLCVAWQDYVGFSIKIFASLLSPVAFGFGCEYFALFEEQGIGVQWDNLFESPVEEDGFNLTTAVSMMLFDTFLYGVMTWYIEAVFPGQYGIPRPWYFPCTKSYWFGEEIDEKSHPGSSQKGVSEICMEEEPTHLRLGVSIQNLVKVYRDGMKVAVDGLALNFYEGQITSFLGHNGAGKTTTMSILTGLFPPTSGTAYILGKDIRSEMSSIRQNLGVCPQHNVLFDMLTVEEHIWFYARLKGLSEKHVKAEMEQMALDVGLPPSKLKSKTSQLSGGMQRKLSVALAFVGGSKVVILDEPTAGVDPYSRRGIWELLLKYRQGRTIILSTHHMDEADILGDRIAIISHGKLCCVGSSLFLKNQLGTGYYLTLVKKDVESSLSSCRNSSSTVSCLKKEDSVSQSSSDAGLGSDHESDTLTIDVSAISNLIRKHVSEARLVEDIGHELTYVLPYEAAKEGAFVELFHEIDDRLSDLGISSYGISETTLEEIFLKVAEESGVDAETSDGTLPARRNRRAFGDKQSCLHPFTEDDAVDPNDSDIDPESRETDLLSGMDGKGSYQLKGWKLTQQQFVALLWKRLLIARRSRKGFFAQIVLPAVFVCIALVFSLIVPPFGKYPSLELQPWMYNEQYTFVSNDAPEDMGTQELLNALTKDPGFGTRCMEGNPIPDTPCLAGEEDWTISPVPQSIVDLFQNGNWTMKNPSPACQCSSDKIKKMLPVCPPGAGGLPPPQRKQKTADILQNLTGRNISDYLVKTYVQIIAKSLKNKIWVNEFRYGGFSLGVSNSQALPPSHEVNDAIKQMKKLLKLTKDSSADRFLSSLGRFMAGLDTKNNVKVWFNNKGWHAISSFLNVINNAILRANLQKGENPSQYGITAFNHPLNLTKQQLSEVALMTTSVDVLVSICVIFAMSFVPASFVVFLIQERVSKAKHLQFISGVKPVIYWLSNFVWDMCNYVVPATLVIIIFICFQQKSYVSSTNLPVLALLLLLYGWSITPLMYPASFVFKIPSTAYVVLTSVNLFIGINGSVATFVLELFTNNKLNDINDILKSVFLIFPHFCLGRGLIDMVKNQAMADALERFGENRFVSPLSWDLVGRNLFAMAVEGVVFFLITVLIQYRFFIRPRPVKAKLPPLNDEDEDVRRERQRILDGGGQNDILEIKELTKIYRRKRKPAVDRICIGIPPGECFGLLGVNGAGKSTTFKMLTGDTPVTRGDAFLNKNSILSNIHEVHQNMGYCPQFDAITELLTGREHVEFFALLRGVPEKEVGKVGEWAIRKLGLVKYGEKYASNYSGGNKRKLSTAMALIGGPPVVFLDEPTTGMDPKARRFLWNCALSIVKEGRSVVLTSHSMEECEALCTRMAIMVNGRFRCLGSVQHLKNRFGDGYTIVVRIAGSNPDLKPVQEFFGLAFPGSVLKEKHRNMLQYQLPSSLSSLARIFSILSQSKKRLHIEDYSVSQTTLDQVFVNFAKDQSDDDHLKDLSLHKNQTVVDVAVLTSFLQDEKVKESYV

fold apoAI binding against control HEK cells: 6 fold
Substance: Alexa647-labeled apoAI (from UniProt P02647 25-267) (ligand)
